Assay results as given in paper PMC3494861 (The Journal of Cell Biology, 2012).
Blank lines part the entries; values can stand above or below the molecule they belong to.

What was measured:
[1] = target: His9-Tob55, short isoform (N. crassa strain Tob55 short HT) (N. crassa); experiment: cryo-EM structure
[2] = target: Tob55 (endogenous; long, intermediate and short isoforms) (N. crassa); experiment: cross-linking
[3] = target: His9-Tob38 (Tob38 with a 9x His tag, N. crassa strain Tob38HT) (N. crassa) (UniProt V5IPB4); experiment: isotope dilution mass spectrometry
[4] = target: His9-Tob37 (Tob37 with a 9x His tag, N. crassa strain Tob37HT) (N. crassa) (UniProt Q7SFC4); experiment: isotope dilution mass spectrometry
[5] = target: T1, His9-Tob38 (Tob38 with a 9x His tag, N. crassa strain Tob38HT) (N. crassa, UniProt V5IPB4 1-340); experiment: native gel or EMSA
T1 sequence (looked up): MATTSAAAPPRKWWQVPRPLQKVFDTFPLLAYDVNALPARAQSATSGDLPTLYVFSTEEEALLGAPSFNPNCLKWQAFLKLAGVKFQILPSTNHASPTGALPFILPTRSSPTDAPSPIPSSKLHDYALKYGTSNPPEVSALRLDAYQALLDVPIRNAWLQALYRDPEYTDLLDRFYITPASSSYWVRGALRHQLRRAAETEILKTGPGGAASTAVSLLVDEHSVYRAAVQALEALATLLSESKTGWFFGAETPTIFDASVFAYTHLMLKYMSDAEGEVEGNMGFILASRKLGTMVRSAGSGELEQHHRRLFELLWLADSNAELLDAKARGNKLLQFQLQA

[6] = target: T2, His9-Tob37 (Tob37 with a 9x His tag, N. crassa strain Tob37HT) (N. crassa, UniProt Q7SFC4 1-442); experiment: native gel or EMSA
T2 sequence (looked up): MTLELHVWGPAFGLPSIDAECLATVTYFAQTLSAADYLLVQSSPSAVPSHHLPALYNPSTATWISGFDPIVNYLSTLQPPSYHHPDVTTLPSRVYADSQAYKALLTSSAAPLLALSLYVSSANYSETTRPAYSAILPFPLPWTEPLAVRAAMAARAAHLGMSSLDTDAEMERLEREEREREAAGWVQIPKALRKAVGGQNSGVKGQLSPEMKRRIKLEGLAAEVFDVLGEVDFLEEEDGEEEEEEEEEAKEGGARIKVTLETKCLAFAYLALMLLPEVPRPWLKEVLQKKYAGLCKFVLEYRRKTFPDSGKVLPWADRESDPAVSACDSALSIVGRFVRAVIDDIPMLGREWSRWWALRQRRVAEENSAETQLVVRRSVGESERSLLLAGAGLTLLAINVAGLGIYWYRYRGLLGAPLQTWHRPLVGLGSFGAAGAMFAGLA

[7] = target: His9-Tob55, short isoform (N. crassa strain Tob55 short HT) (N. crassa); experiment: isotope dilution mass spectrometry
[8] = target: T1, His9-Tob38 (Tob38 with a 9x His tag, N. …); experiment: isotope dilution mass spectrometry
[9] = target: T2, His9-Tob37 (Tob37 with a 9x His tag, N. …); experiment: isotope dilution mass spectrometry

Molecule: His9-Tob55, short isoform (N. crassa strain Tob55 short HT) (natural protein)
stoichiometry N [1]: 2

B1: Mdm10 (endogenous) (natural protein, N. crassa, UniProt Q7SBE0 1-480, looked up)
chain: MREFMNYITNAFYGATGWNEDNKYNELNATSRELIDFPLPRGLRLTLSSLATPHFATSYQLGSVGVVDGSISYLHSSIPLTHIAAQSDKIPLPALLRCYRRLHDLRSPGQQHYILDADPLSGLPPPPQSARALLGAASDAAVAGGALDGGNTDQDLGIYTHSLLYGRLYLPKSLLEGMIIKRFTQALQVQVRAVSEQSLRNGGTILGLVQYDKGKYGLEGLYSTDGGLLGFRGLYNFGGDASSSTCDPWTPTPGENNNNNNNNNNNNNGNAQAGEKERIYGRFSVGGELYYGTLNKSGGMSLGARFATLPAHRGTPLTATLTINPLMGNINATYALLAREYCSLATRVDFNVYSYESEWAVGMELWSNRRPAGFLLGASPSNDFEPEPHPPRKKERSFQAKMEWRLDDPEPEPEPQPTPKTRKNDEYKGVLKARLDNNLRMGLLWEGRAKSLIFSIGTGIDLHKLGEPFRSLGLEVQYSS
stoichiometry N [5]: 1
stoichiometry N [6]: 1

B2: Tob37 (endogenous) (natural protein, N. crassa, UniProt Q7SFC4 1-442, looked up)
chain: T2 sequence (looked up)
stoichiometry N [7]: 1
stoichiometry N [8]: 1

Second part, the molecule after the results:

stoichiometry N [2]: 2
stoichiometry N [3]: 1
stoichiometry N [4]: 1
Molecule: Tob55 (endogenous; long, intermediate and short isoforms) (natural protein)

stoichiometry N [7]: 1
stoichiometry N [9]: 1
B3: Tob38 (endogenous) (natural protein, N. crassa, UniProt V5IPB4 1-340, looked up)
chain: T1 sequence (looked up)
